Results from US20210079040.

T1: Link N (human Link N, DHLSDNYTLDHDRAIH)
T1 sequence: DHLSDNYTLDHDRAIH


System: T1, Link N (human Link N, DHLSDNYTLDHDRAIH)

MMP 12, sequence (P39900 106-470): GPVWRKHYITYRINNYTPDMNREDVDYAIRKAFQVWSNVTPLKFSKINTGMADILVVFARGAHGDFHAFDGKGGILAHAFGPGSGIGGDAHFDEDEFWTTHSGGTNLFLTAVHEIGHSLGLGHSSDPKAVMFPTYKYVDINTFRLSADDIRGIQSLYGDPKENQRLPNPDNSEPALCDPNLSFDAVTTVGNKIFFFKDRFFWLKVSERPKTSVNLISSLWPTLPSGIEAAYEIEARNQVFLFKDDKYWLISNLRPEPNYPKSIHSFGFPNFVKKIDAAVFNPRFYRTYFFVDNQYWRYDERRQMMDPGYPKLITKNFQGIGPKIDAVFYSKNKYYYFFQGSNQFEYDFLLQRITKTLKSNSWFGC

Molecule | peak area intensity of the 1922 Da Link 1-16 peptide (mass spectrometry) after proteinase digest
cathepsin B | un-affected by MMPs 3, 7, 12, 13, ADAMTS 4,5, HTRA1, and cathepsins B, and L
HTRA1 | un-affected by MMPs 3, 7, 12, 13, ADAMTS 4,5, HTRA1, and cathepsins B, and L
MMP 3 | un-affected by MMPs 3, 7, 12, 13, ADAMTS 4,5, HTRA1, and cathepsins B, and L
cathepsin L | un-affected by MMPs 3, 7, 12, 13, ADAMTS 4,5, HTRA1, and cathepsins B, and L
MMP 12 | un-affected by MMPs 3, 7, 12, 13, ADAMTS 4,5, HTRA1, and cathepsins B, and L
MMP 13 | un-affected by MMPs 3, 7, 12, 13, ADAMTS 4,5, HTRA1, and cathepsins B, and L
ADAMTS 5 | un-affected by MMPs 3, 7, 12, 13, ADAMTS 4,5, HTRA1, and cathepsins B, and L
cathepsin K (enzyme, UniProt P43235 115-329, looked up, species assumed) Cathepsin K: APDSVDYRKKGYVTPVKNQGQCGSCWAFSSVGALEGQLKKKTGKLLNLSPQNLVDCVSENDGCGGGYMTNAFQYVQKNRGIDSEDAYPYVGQEESCMYNPTGKAAKCRGYREIPEGNEKALKRAVARVGPVSVAIDASLTSFQFYSKGVYYDESCNSDNLNHAVLAVGYGIQKGNKHWIIKNSWGENWGNKGYILMARNKNNACGIANLASFPKM | significantly diminished already after 30 minutes and was hardly detectable at 2 and 24 hours incubation with cathepsin K
MMP 7 (enzyme, UniProt P09237 95-267, looked up, species assumed) Matrilysin: YSLFPNSPKWTSKVVTYRIVSYTRDLPHITVDRLVSKALNMWGKEIPLHFRKVVWGTADIMIGFARGAHGDSYPFDGPGNTLAHAFAPGTGLGGDAHFDEDERWTDGSSLGINFLYAATHELGHSLGMGHSSDPNAVMYPTYGNGDPQNFKLSQDDIKGIQKLYGKRSNSRKK | un-affected by MMPs 3, 7, 12, 13, ADAMTS 4,5, HTRA1, and cathepsins B, and L
ADAMTS 4 (enzyme, UniProt O75173 213-837, looked up, species assumed) A disintegrin and metalloproteinase with thrombospondin motifs 4: FASLSRFVETLVVADDKMAAFHGAGLKRYLLTVMAAAAKAFKHPSIRNPVSLVVTRLVILGSGEEGPQVGPSAAQTLRSFCAWQRGLNTPEDSDPDHFDTAILFTRQDLCGVSTCDTLGMADVGTVCDPARSCAIVEDDGLQSAFTAAHELGHVFNMLHDNSKPCISLNGPLSTSRHVMAPVMAHVDPEEPWSPCSARFITDFLDNGYGHCLLDKPEAPLHLPVTFPGKDYDADRQCQLTFGPDSRHCPQLPPPCAALWCSGHLNGHAMCQTKHSPWADGTPCGPAQACMGGRCLHMDQLQDFNIPQAGGWGPWGPWGDCSRTCGGGVQFSSRDCTRPVPRNGGKYCEGRRTRFRSCNTEDCPTGSALTFREEQCAAYNHRTDLFKSFPGPMDWVPRYTGVAPQDQCKLTCQAQALGYYYVLEPRVVDGTPCSPDSSSVCVQGRCIHAGCDRIIGSKKKFDKCMVCGGDGSGCSKQSGSFRKFRYGYNNVVTIPAGATHILVRQQGNPGHRSIYLALKLPDGSYALNGEYTLMPSPTDVVLPGAVSLRYSGATAASETLSGHGPLAQPLTLQVLVAGNPQDTRLRYSFFVPRPTPSTPRPTPQDWLHRRAQILEILRRRPWAGRK | un-affected by MMPs 3, 7, 12, 13, ADAMTS 4,5, HTRA1, and cathepsins B, and L
